Patent US6087375A, “Methods of treating or preventing thromboses” (priority 1999, dated 2000)

Key:
[1] = target: thrombin from human plasma (Homo sapiens, UniProt P00734); assay: Km-based fluorogenic assay for inhibition of thrombin (Example 7); format: biochemical; set-up: from tissue; host or cells: human plasma; details: FIG. 9, ambient temperature, pH 7.2
Experimental: Thrombin from human plasma was obtained from Enzyme System Products, Dublin, Calif., in glycerol:water 1:1, 11.4 mg/ml, 3800 U/mg, MW 36,700, and stored undiluted at -20° C. It was freshly diluted the day of use.
To dilute for the assay, 0.67 μl (25 Units) of thrombin was pipetted into 5 ml of 0.1 mg/ml BSA (from Pierce, Catalog No. 23209, BSA fraction V, a 2 mg/ml stock in saline with sodium azide), in cold PBS (GIBCO, Catalog No. 14190-136, without calcium chloride and magnesium chloride, pH 7.2) and briefly vortexed, yielding a stock of 5 mU thrombin/μl.
The substrate was N-tBOC-β-Benzyl-Asp-Pro-Arg-7-Amido4-Methylcoumarin HCl and was obtained from Sigma, Catalog No. B4028, Lot 122H0070, F.W. 770.3. Five mg was dissolved in […] DMSO for a 4 mM stock. The stock was stored in 200 μl aliquots at -20° C. in the dark.
An alternative substrate was N-tBOC-Val-Pro-Arg-7-Amido4-Methylcoumarin HCl and was obtained from Sigma, Catalog No. B-9385, Lot 53H0805, F.W. of free base 627.7. Five mg was dissolved in 1.863 ml DMSO for a 4 mM stock. The stock was stored in 200 μl aliquots at -20° C. in the dark.
The fluorescent standard was 7-Amido4-Methylcoumarin and was obtained from Aldrich, Catalog No. 25,737-0, MW 175.19. […]
Initial readings were taken to ensure exclusion of rogue wells with abnormally high backgrounds (λ excitation at 360 nm, bandwidth […], λ emission, 460 nm, bandwidth 40 nm). Then, 25 μl of a 10×stock of the putative inhibitor were added per well, mixed for 5 seconds and read kinetically for 10 minutes at ambient temperature to assess background interference and/or any increase in hydrolysis of substrate due to inhibitor.
The thrombin assay was then initiated by adding 25 μl of thrombin/well with a multichannel pipettor and mixed for 5 seconds. The appearence of the fluorescent product (free 7-amido-4-methylcoumarin released from the peptide by thrombin) was followed simultaneously in 48 wells (one reading per minute for 30 minutes, λ excitation at 360 nm, bandwidth 40 nm, λ emission, 460 nm, bandwidth 40 nm). […]

[2] = target: rabbit serum albumin (RSA) (Oryctolagus cuniculus, UniProt P49065); assay: Mass spectrometric analysis of conjugation to RSA (HPLC/ESIMS, MALDI-TOFMS); format: binding; details: LC/MS; 15 μM RSA, 200 μM argatroban-C6 NHS ester, 1 hour (Example 8)
Experimental: All samples were analyzed using a high performance liquid chromatograph (HPLC) coupled in-line to an electrospray ionization (ESI) mass spectrometer (MS) which is termed HPLC/ESIMS. Some samples were also analyzed using a matrix-assisted laser desorption ionization (MALDI) time-of-flight (TOF) mass spectrometer which is termed (MALDI-TOFMS).
Samples for HPLC/ESIMS were either prepared as duplicate reaction samples or were part of the same reaction samples which were used in the ELISA assays described below. These samples were injected directly only the HPLC/ESIMS without any manipulation other than dilution with water, where the PBS, DMSO, and unreacted derivative molecules are separated from the protein-argatroban derivative molecule conjugate. Samples for MALDI-MS were first HPLC-purified and mixed 1:1 directly on the stainless steel analysis plate with a matrix of 10 mg/ml sinnapinic acid in 50% acetonitrile/50% water. The mixture was then dried with a gentle flow of air to allow for crystallization and inserted into the instrument for laser ionization.
The HPLC is a Hewlett Packard 1090 Series II liquid chromatogram with a diode array detector. The column used for separation is a Brownlee aquapore OD-300 reversed phase C18 column, 1 mm×10 cm, 300 Å pore size, 7 μm particle diameter. The mass spectrometer to which the HPLC is connected using fused Silica capillary tubing is a Sciex API-300 triple quadrupole mass spectrometer with an ionspray source to allow for atmospheric pressure ionization of a liquid flowing continuously into the instrument. The MALDI-TOFMS is a Perceptive Biosystems Voyager Elite DE instrument run in the linear mode.
The conjugate was prepared according to the following protocol. […] Sham samples consist of the RSA incubated for the same length of time at RT in 2% DMSO in PBS. Each of the samples was then concentrated to a final volume of 1.5 mL using Amicon Centricon 30 filtration/concentration devices. The concentrated samples were then desalted on Pierce's 5 ML Kwiksep excellulose plastic desalting columns. The excluded volumes containing RSA or argatroban-C6-RSA were then subjected to BCA microprotein estimation and lyophilization. In addition, these samples were analyzed by LC/MS, sandwich ELISA assays (described above) to measure thrombin binding and immunoblotting.

thrombin = assay: Sandwich ELISA for thrombin binding of conjugated proteins (anti-thrombin detection)
Experimental: (§1) The plates were incubated at room temperature for 30 minutes and washed as above.
as §1
Next, 100 μl/well of ABC-HRP (Vector, catalog no. PK4000) was added, each component diluted 1:500 in PBS, pH 7.4, with 0.1% TWEEN 20 and incubated 30 minutes at room temperature prior to use.

Chain of rabbit serum albumin (RSA) (P49065 25-608): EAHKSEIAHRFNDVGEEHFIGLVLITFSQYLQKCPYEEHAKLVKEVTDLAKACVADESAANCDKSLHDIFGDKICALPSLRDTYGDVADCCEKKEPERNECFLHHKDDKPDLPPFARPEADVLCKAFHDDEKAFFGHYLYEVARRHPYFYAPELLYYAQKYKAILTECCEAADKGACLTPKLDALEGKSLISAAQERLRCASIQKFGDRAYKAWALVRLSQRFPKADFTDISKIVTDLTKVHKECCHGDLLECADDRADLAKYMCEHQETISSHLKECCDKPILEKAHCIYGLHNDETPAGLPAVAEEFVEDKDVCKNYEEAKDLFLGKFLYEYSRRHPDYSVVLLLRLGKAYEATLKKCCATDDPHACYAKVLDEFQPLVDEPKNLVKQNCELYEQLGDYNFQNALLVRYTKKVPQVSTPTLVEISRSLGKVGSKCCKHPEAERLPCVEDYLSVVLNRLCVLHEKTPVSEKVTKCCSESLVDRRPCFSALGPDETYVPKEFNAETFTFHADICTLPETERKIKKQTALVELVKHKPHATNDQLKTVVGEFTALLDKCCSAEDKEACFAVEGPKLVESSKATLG

RSA-argatroban-C6 conjugate: rabbit serum albumin covalently bound by argatroban-C6 NHS ester molecules
IC50 (estimated) [1]: ~25 nM | average of tethered argatroban molecules conjugated to each RSA molecule [2]: 10 tethered argatroban molecules | absolute ELISA signal (thrombin; RSA conjugate versus HSA conjugate): the absolute signal is lower than that obtained with HSA | concentration at which a significant signal above background was detected (thrombin; RSA conjugate, FIG. 3): approximately 30 ng/ml
